From article PMC3349753

Molecular target: Myc-tagged full-length FGD4 (FYVE, RhoGEF and PH domain-containing 4) (human) (UniProt Q96M96)
UniProt Q96M96, sequence (Q96M96 whole entry, the tested form may be a part): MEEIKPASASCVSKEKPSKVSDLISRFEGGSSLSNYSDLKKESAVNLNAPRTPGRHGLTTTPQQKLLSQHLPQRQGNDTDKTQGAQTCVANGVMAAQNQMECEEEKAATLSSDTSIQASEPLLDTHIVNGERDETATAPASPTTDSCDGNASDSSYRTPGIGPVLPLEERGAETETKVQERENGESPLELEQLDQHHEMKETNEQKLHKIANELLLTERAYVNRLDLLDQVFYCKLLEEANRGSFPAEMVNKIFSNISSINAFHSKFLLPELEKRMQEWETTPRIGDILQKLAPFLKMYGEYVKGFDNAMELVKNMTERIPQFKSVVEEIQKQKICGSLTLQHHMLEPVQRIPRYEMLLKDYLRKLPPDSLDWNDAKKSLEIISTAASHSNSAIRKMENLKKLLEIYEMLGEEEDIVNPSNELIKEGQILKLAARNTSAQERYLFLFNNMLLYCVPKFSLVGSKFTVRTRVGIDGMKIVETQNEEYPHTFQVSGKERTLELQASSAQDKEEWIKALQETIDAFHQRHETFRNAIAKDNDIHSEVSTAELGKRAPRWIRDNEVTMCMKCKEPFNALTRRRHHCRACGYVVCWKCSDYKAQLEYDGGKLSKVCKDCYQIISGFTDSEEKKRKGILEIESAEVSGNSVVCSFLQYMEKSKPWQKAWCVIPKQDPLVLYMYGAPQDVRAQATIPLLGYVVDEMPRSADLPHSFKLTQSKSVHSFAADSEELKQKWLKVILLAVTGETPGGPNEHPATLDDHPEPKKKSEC

## Flag-CD40CT chimera: the entire transmembrane region of LMP1 (aa 1–177) replaced with that of CD40 (aa 1–214) (from UniProt P25942 21-214; P03230 178-386)
  level of active Cdc42 (GST-CBD pull-down from NPC-TW01 lysates) on co-expression of FGD4 with CD40CT, compared with expression of FGD4 alone: did not promote Cdc42 activation: 1.1 fold

## Flag-tagged full-length latent membrane protein 1 (LMP1) (from UniProt P03230 1-386) (natural protein)
  level of active Cdc42 (GST-CBD pull-down from NPC-TW01 lysates) on co-expression of Myc-FGD4 with LMP1, compared with expression of FGD4 alone: 1.8 fold
